Literature values as cited in publication PMC4443854.
pKd: −log10 of the molar value.

Target: actin filaments (F-actin) (Oryctolagus cuniculus) (UniProt P68135)

pKd: 5.60
Substance: AIP1 (from UniProt O75083)
